The assay has as its target CXCL9_HUMAN (human) (UniProt Q07325). Description: yeast surface display FACS re-test.

This passage reports % cells over threshold fluorescence results from US20240034757A1.

Sequence of CXCL9_HUMAN (human) (Q07325 23-125 limits assumed): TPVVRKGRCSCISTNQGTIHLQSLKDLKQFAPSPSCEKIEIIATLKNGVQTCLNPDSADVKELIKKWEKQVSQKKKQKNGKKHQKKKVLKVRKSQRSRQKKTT

B1: P1126_AMBCA (protein)
chain: KPQILQRTDKSTDSEWDPQTCPETCIPSKNITCSDGCVCVKLGEEEEGTCFNMTGVDWLGSPSDD
B1: the % cells over threshold fluorescence was found to be 56%.
